Measured values reported in article PMC7527728, “CPSF6-Dependent Targeting of Speckle-Associated Domains Distinguishes Primate from Nonprimate Lentiviral Integration” (mBio, 2020).
Where two headings read alike, the source gives them in different places.

Columns and labels:
FIV = experiment: CPSF6-358 restriction assay, FIV; type: cell-based; conditions: HEK293T expressing CPSF6-358 vs vector control, GFP virus, MOI 0.4 to 0.5, 48 h (Fig. 5B)
Method: (§1) Vector control HEK293T cells were infected with GFP viruses at approximate MOIs of 0.4 to 0.5 alongside cells expressing CPSF6-358 (Fig. 5A).
(§2) HEK293T cells were cultured at 37°C in Dulbecco’s modified Eagle’s medium containing 10% (vol/vol) fetal bovine serum (FBS), 100 IU/ml penicillin, and 100 μg/ml streptomycin (DMEM) in humidified incubators in the presence of 5% CO2.
(§3) Single-cycle GFP and Luc reporter viruses were produced by cotransfection of HEK293T cells in 10-cm dishes with 15 μg total of various ratios of virus production plasmids using PolyJet DNA transfection reagent (SignaGen Laboratories). […] Concentrations of retroviral particles in mU/ml were determined using a TaqMan-based product-enhanced reverse transcriptase (Taq-PERT) real-time PCR assay ([80]).
(§4) Infections were conducted in duplicate in 24-well plates (10^5 cells/well). […] GFP reporter viral MOIs were determined as percentage of GFP-positive cells using a FACSCanto flow cytometer (BD Biosciences). […] Cell lysates were centrifuged at 17,500 × g for 8 min, and supernatants were analyzed in triplicate for luciferase activity. Relative light units (RLU), determined by luminometer (Berthold Technologies), were normalized to total protein concentration as measured by Pierce BCA protein assay kit (Thermo Fisher Scientific).

MLV = experiment: CPSF6-358 restriction assay, MLV; type: cell-based; conditions: HEK293T expressing CPSF6-358 vs vector control, GFP virus, MOI 0.4 to 0.5, 48 h (Fig. 5B)
Method: as §1, §2, §3, §4

SIVmne = system: SIVmne; design: method as in PMID 20227665; conditions: cited from earlier work
primate lentiviruses = experiment: CPSF6-358 restriction assay, primate lentiviruses; type: cell-based; conditions: HEK293T expressing CPSF6-358 vs vector control, GFP viruses, MOI 0.4 to 0.5, 48 h (Fig. 5B)
Method: as §1, §2
(§5) Infections were conducted in duplicate in 24-well plates (10^5 cells/well). After 6 to 8 h, medium was replaced with fresh DMEM or RPMI, and cells were harvested at 48 h from the start of the experiment. GFP reporter viral MOIs were determined as percentage of GFP-positive cells using a FACSCanto flow cytometer (BD Biosciences).

BIV = experiment: CPSF6-358 restriction assay, BIV; type: cell-based; conditions: HEK293T expressing CPSF6-358 vs vector control, GFP virus, MOI 0.4 to 0.5, 48 h (Fig. 5B)
Method: as §1, §2, §3, §4

SIVmac [1] = system: SIVmac; design: method as in 2 sources, ref 33 = [33]; PMID 20227665; doi:10.1016/j.chom.2010.02.007; 33. Lee K , Ambrose Z , Martin TD , Oztop I , Mulky A , Julias JG , Vandegraaff N , Baumann JG , Wang R , Yuen W , Takemura T , Shelton K , Taniuchi I , Li Y , Sodroski J , Littman D , Coffin J , Hugh ||| ref 35 = [35]; PMID 24130490; doi:10.1371/journal.ppat.1003693; 35. Matreyek KA , Yücel SS , Li X , Engelman A 2013 Nucleoporin NUP153 phenylalanine-glycine motifs engage a common binding pocket within the HIV-1 capsid protein to mediate lentiviral infectivity . P; conditions: cited from earlier work
SIVmac [2] = experiment: CPSF6-358 restriction assay, SIVmac; type: cell-based; conditions: HEK293T expressing CPSF6-358 vs vector, Luc virus, range of virus inocula (Fig. 5C)
Method: as §1, §2, §3, §4

HIV-1 [3] = conditions: HEK293T expressing CPSF6-358 vs vector, Luc virus, range of virus inocula (Fig. 5C)
Method: as §1, §2, §3, §4

HIV-2 = system: HIV-2; design: method as in PMID 20227665; conditions: cited from earlier work
HIV-1 [4] = conditions: cited from earlier work
EIAV = experiment: CPSF6-358 restriction assay, EIAV; type: cell-based; conditions: HEK293T expressing CPSF6-358 vs vector control, GFP virus, MOI 0.4 to 0.5, 48 h (Fig. 5B)
Method: as §1, §2, §5

B1: CPSF6-358 (protein, UniProt Q16630 1-358, looked up, fragment)
chain: MADGVDHIDIYADVGEEFNQEAEYGGHDQIDLYDDVISPSANNGDAPEDRDYMDTLPPTVGDDVGKGAAPNVVYTYTGKRIALYIGNLTWWTTDEDLTEAVHSLGVNDILEIKFFENRANGQSKGFALVGVGSEASSKKLMDLLPKRELHGQNPVVTPCNKQFLSQFEMQSRKTTQSGQMSGEGKAGPPGGSSRAAFPQGGRGRGRFPGAVPGGDRFPGPAGPGGPPPPFPAGQTPPRPPLGPPGPPGPPGPPPPGQVLPPPLAGPPNRGDRPPPPVLFPGQPFGQPPLGPLPPGPPPPVPGYGPPPGPPPPQQGPPPPPGPFPPRPPGPLGPPLTLAPPPHLPGPPPGAPPPAPHVN
- restriction of infection, in words (FIV): did not significantly restrict FIV infection
- restriction of infection, in words (MLV): MLV-GFP similarly infected control and CPSF6-358-expressing cells
- restriction of infection, in words (SIVmne): restricted infection
- restriction of infection, in words (primate lentiviruses): potently restricted infection by primate lentiviruses
- restriction of infection, in words (BIV): infection by BIV was similarly unaffected
- restriction of infection, in words (SIVmac [1]): restricted infection
- restriction of infection, in words (SIVmac [2]): restriction of HIV-1 and SIVmac-Luc viruses was observed across a range of virus inocula
- restriction of infection, in words (HIV-1 [3]): restriction of HIV-1 and SIVmac-Luc viruses was observed across a range of virus inocula
- restriction of infection, in words (HIV-2): restricted infection
- restriction of infection, in words (HIV-1 [4]): restricted infection
- restriction of infection, in words (EIAV): failed to appreciably restrict EIAV infection
